Assay results taken from patent US8507443B2, “Anticancer agent” (The Research Foundation for Microbial Diseases of Osaka …, priority 2005, dated 2013).

Assays:
HB-EGF = HB-EGF (Homo sapiens, UniProt Q99075); assay: Inhibition of binding of 125I-labeled diphtheria toxin to HB-EGF
HB-EGF, sequence (Q99075 63-148): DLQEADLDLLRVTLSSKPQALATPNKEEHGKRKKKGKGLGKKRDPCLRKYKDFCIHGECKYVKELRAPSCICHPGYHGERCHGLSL

GST-DT was tested, and the “activity to inhibit the binding of HB-EGF to EGFR” value (HB-EGF) was “inhibit the binding of HB-EGF to EGFR”, the “inhibition of the binding of 125I-labeled diphtheria toxin to HB-EGF” value (HB-EGF) was “in a dose dependent manner” and the “toxicity of diphtheria toxin” value (Vero cells) was “do not have the toxicity of diphtheria toxin substantially”.
